B1: Elp2 (endogenous, in the Elp123 subcomplex) (natural protein, UniProt P42935 1-788, looked up)
chain: MVECITPEAIFIGANKQTQVSDIHKVKKIVAFGAGKTIALWDPIEPNNKGVYATLKGHEAEVTCVRFVPDSDFMVSASEDHHVKIWKFTDYSHLQCIQTIQHYSKTIVALSALPSLISVGCADGTISIWRQNIQNDEFGLAHEFTIKKGFFYPLCLSLSKVEEKKYLLAIGGTNVNVFIASFILSDSGIEKCRVVAELEGHEDWVKSLAFRHQETPGDYLLCSGSQDRYIRLWRIRINDLIDDSEEDSKKLTLLSNKQYKFQIDDELRVGINFEALIMGHDDWISSLQWHESRLQLLAATADTSLMVWEPDETSGIWVCSLRLGEMSSKGASTATGSSGGFWSCLWFTHERMDFFLTNGKTGSWRMWATKDNIICDQRLGISGATKDVTDIAWSPSGEYLLATSLDQTTRLFAPWIYDASGRKREIATWHEFSRPQIHGYDMICVETVTDTRFVSGGDEKILRSFDLPKGVAGMLQKFVGIQFEEKSEMPDSATVPVLGLSNKAGEDDANEDDEEEEGGNKETPDITDPLSLLECPPMEDQLQRHLLWPEVEKLYGHGFEITCLDISPDQKLIASACRSNNVQNAVIRIFSTENWLEIKPALPFHSLTITRLKFSKDGKFLLSVCRDRKWALWERNMEDNTFELRFKNEKPHTRIIWDADWAPLEFGNVFVTASRDKTVKVWRHQKEPADDYVLEASIKHTKAVTAISIHDSMIREKILISVGLENGEIYLYSYTLGKFELITQLNEDITPADKITRLRWSHLKRNGKLFLGVGSSDLSTRIYSLAYE
B3: Elp1-3xFLAG (endogenous, in the Elp123 subcomplex) (natural protein, S. cerevisiae, UniProt Q06706 1-1349, looked up)
chain: MVEHDKSGSKRQELRSNMRNLITLNKGKFKPTASTAEGDEDDLSFTLLDSVFDTLSDSITCVLGSTDIGAIEVQQFMKDGSRNVLASFNIQTFDDKLLSFVHFADINQLVFVFEQGDIITATYDPVSLDPAETLIEIMGTIDNGIAAAQWSYDEETLAMVTKDRNVVVLSKLFEPISEYHLEVDDLKISKHVTVGWGKKETQFRGKGARAMEREALASLKASGLVGNQLRDPTMPYMVDTGDVTALDSHEITISWRGDCDYFAVSSVEEVPDEDDETKSIKRRAFRVFSREGQLDSASEPVTGMEHQLSWKPQGSLIASIQRKTDLGEEDSVDVIFFERNGLRHGEFDTRLPLDEKVESVCWNSNSEALAVVLANRIQLWTSKNYHWYLKQELYASDISYVKWHPEKDFTLMFSDAGFINIVDFAYKMAQGPTLEPFDNGTSLVVDGRTVNITPLALANVPPPMYYRDFETPGNVLDVACSFSNEIYAAINKDVLIFAAVPSIEEMKKGKHPSIVCEFPKSEFTSEVDSLRQVAFINDSIVGVLLDTDNLSRIALLDIQDITQPTLITIVEVYDKIVLLRSDFDYNHLVYETRDGTVCQLDAEGQLMEITKFPQLVRDFRVKRVHNTSAEDDDNWSAESSELVAFGITNNGKLFANQVLLASAVTSLEITDSFLLFTTAQHNLQFVHLNSTDFKPLPLVEEGVEDERVRAIERGSILVSVIPSKSSVVLQATRGNLETIYPRIMVLAEVRKNIMAKRYKEAFIVCRTHRINLDILHDYAPELFIENLEVFINQIGRVDYLNLFISCLSEDDVTKTKYKETLYSGISKSFGMEPAPLTEMQIYMKKKMFDPKTSKVNKICDAVLNVLLSNPEYKKKYLQTIITAYASQNPQNLSAALKLISELENSEEKDSCVTYLCFLQDVNVVYKSALSLYDVSLALLVAQKSQMDPREYLPFLQELQDNEPLRRKFLIDDYLGNYEKALEHLSEIDKDGNVSEEVIDYVESHDLYKHGLALYRYDSEKQNVIYNIYAKHLSSNQMYTDAAVAYEMLGKLKEAMGAYQSAKRWREAMSIAVQKFPEEVESVAEELISSLTFEHRYVDAADIQLEYLDNVKEAVALYCKAYRYDIASLVAIKAKKDELLEEVVDPGLGEGFGIIAELLADCKGQINSQLRRLRELRAKKEENPYAFYGQETEQADDVSVAPSETSTQESFFTRYTGKTGGTAKTGASRRTAKNKRREERKRARGKKGTIYEEEYLVQSVGRLIERLNQTKPDAVRVVEGLCRRNMREQAHQIQKNFVEVLDLLKANVKEIYSISEKDRERVNENGEVYYIPEIPVPEIHDFPKSHIVDF

Holding throughout (assay): cryo-EM structure
For data set [1], the target named is B3.
The target in data set [2] is B1.
Data set [3] deals with the molecule itself.

Take B1: the binding result in data set [1] was “binds”.

B2: Elp3 (endogenous, in the Elp123 subcomplex) (enzyme, UniProt Q02908 1-557, looked up)
chain: MARHGKGPKTNKKKLAPEKERFIQCCADITLELTDSLTSGTTREINLNGLITKYSKKYKLKQQPRLTDIINSIPDQYKKYLLPKLKAKPVRTASGIAVVAVMCKPHRCPHIAYTGNICVYCPGGPDSDFEYSTQSYTGYEPTSMRAIRARYDPYEQARGRVEQLKQLGHSIDKVEYVLMGGTFMSLPKEYREDFIVKLHNALSGFNGNDIDEAILYSQQSLTKCVGITIETRPDYCTQTHLDDMLKYGCTRLEIGVQSLYEDVARDTNRGHTVRSVCETFAVSKDAGYKVVSHMMPDLPNVGMERDIEQFKEYFENPDFRTDGLKIYPTLVIRGTGLYELWKTGRYKSYSANALVDLVARILALVPPWTRIYRVQRDIPMPLVTSGVDNGNLRELALARMKDLGTTCRDVRTREVGIQEVHHKVQPDQVELIRRDYYANGGWETFLSYEDPKKDILIGLLRLRKASKKYTYRKEFTSQRTSIVRELHVYGSVVPLHSRDPRKFQHQGFGTLLMEEAERIAKEEHGSEKISVISGVGVRNYYGKLGYELDGPYMSKRI
B2: the binding result in data set [2] and in data set [1] was “binds” throughout.

With B3, the “stoichiometry N” value in data set [3] turned out to be 2.

(Values after article PMC6620098 (Science Advances, 2019).)
